Experimental data: the nanobody polyreactivity screen of Harvey et al. (2022)

Experiment: yeast display, Sf9 membrane polyspecificity reagent, FACS + sequencing; frameworks hold sequencing errors
Outline: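 Nanobodies came from a synthetic yeast display library in Saccharomyces cerevisiae BJ5465, induced with galactose for 36–48 hours and stained for 1 hour at 4 °C with 10% biotinylated, detergent-solubilized Sf9 membrane reagent. Cells were enriched on streptavidin microbeads and then FACS-sorted, with low and high (top ~1%) gates set on anti-HA fluorescence for expression and streptavidin fluorescence for reagent binding. Each polyreactivity label reflects the gate a clone came from. Genes were amplified by colony PCR, sequenced by MiSeq 2 × 250 and filtered by CDR length.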
For “QVQLVESGGGLVQAGGSLRLSCAASGRIFGVYAKGWYRQAPGKERELVAAISEGGGSTNYADSVKGRFTISRDNAKNTVYLQMNSLKPEETSVYYCAATYLTGVRRYYSWGQGSQVTVSS”, the “polyreactivity (PSR sort gate)” value was “low polyreactivity”. For “QVQLVESGGGLVQAGGSLRLSCAASGRIFGVYAMGCYRQAPGKDRELVAAISSTGGSTYYADSVKGRFTISRDNAKNTVYLQMNSMKPEDTAVYYCEYDYWGQGTQVTVSS”, the “polyreactivity (PSR sort gate)” value was “low polyreactivity”. In the case of “QVQLVESGGGLVQAGGSLRLSCAASGRIFGVYAMGWYRQAAWKERELVAAITRGASTYYADSVKGRFTISRDNAKNTVYLQMNSLKPEDPAVYYCAVSQYRGIYRKYDYWGQGTQVTVSS”, the “polyreactivity (PSR sort gate)” value is reported as “high polyreactivity”. With “QVQLVESGGGLVQAGGSLRLSCAASGRIFGVYAMGWYRQAPGKERELVADISWSADSTYYADSVKGRFTISRDNAKNTVYLQMNSLKPEDTAVYYCAADALFNVQNSRGYDYWGQGTQVTVSS” the “polyreactivity (PSR sort gate)” value was “low polyreactivity”. In the case of “QVQLVESGGGLVQAGGSLRLSCAASGRIFGWNAMGWYRQAPGKERELVAVIDTGGSTNYADSVKGRFTISRDNAKNTVYLQMNSLKPEDTAVYYCAAVTGIRYFTSEYDYWGQGTQVTVSS”, the “polyreactivity (PSR sort gate)” value is reported as “low polyreactivity”. In the case of “QVQLVESGGGLVQAGGSLRLSCAASGRIFGWYAMGWYRQAPGKERELVAAINRGGSTNYADSVKGRFTISRDNAKNTVYLQMNSLSPEDTGVYYCAVRGVHYTAVTNIIYGYGYWGQGTQVTVSS”, the “polyreactivity (PSR sort gate)” value is reported as “high polyreactivity”. In the case of “QVQLVESGGGLVQAGGSLRLSCAASGRIFGYNAMGWYIQAPGKERELVAVITYSGGSTYYADSVKGRFTISRDNAKNTVYLQMNSLKPEDTAVYYCNARPIDRYSGSGKQWPDYNYWGQGTQVTVSS”, the “polyreactivity (PSR sort gate)” value is reported as “low polyreactivity”. For “QVQLVESGGGLVQAGGSLRLSCAASGRIFGYNAMGWYRLAPGKERELVAAIRSGGSTNYADSVKGRFTISRDNAKNTVYLQMNSLKPEDTAVYYCAADDRWWYTPRPRYNYWGQGTQVTVSS”, the “polyreactivity (PSR sort gate)” value was “high polyreactivity”. For “QVQLVESGGGLVQAGGSLRLSCAASGRIFGYNAMGWYRQAPGKERELVAAIRRSGNTYADSVKGRFTISRDNAKNTVYLQMNSLKPEDTAVYYCAHRVSKRMYYWGQGTQVTVSS”, the “polyreactivity (PSR sort gate)” value was “high polyreactivity”. With “QVQLVESGGGLVQAGGSLRLSCAASGRIFGYNAMGWYRQAPGKERELVATISSGGGTNYADSVKGRFTISRDNAKNTVYLQMNSLKPEDTAVYYCNARIVYYYKRYTRDYEYWGQGTQVTVSS” the “polyreactivity (PSR sort gate)” value was “low polyreactivity”. For “QVQLVESGGGLVQAGGSLRLSCAASGRIFGYNAMGWYRQAPGKVRELVAAITTSGGSTYYADSVTGRFTISRDTAKNTVYLQMNSLKPEDTAVYYCARDSLQVFYQYASDDYWGQGTQVTVSS”, the “polyreactivity (PSR sort gate)” value was “low polyreactivity”. In the case of “QVQLVESGGGLVQAGGSLRLSCAASGRIFGYNAMGWYRQAPGTERELVAAISSSGGGTYYADSVKGRFTISRDNAKNTVYLQMNSLKPEDTAVYYCAAYTRPGRYDYWGQGTQVTVSS”, the “polyreactivity (PSR sort gate)” value is reported as “high polyreactivity”. With “QVQLVESGGGLVQAGGSLRLSCAASGRIFGYYAMGWYRPAPGKERELVAGITSGGITNYADSVKGRFTISRDNAKNTVYLQMNSLKPEDTAVYYCAARSGYYYRVKFYYWGQGTQVSVSS” the “polyreactivity (PSR sort gate)” value was “high polyreactivity”. In the case of “QVQLVESGGGLVQAGGSLRLSCAASGRIFGYYAMGWYRQAPGKERELVAAIRRSGGSTYADSVKGRFTISRDNAKNTVYLQMNSLKPEDTAVYYCAAGHYWFTKGYHTLYDMDYWGQGTQVTVSS”, the “polyreactivity (PSR sort gate)” value is reported as “high polyreactivity”. With “QVQLVESGGGLVQAGGSLRLSCAASGRIFGYYAMGWYRQAPGKERELVAAISWSGGSTFYADSVKGRFTISRDYAKNTVYLQMISLKPEDTAVYYCNKDHLVYPSEFYYWGQGTQVTVSS” the “polyreactivity (PSR sort gate)” value was “low polyreactivity”. In the case of “QVQLVESGGGLVQAGGSLRLSCAASGRIFGYYAMGWYRQAPGKERELVAAITINGGRTYYADSVKGRFTISRDNAKNTVYLQMNSLKPEDTAVYYCTATSRYNRLGYWGQGTQVTVSS”, the “polyreactivity (PSR sort gate)” value is reported as “high polyreactivity”. In the case of “QVQLVESGGGLVQAGGSLRLSCAASGRIFGYYAMGWYRQAPGKERELVAAITSGGRTNYADSVKGRFTISRDNAKNTVYLQMNSLKPEDTAVYYCAKEYPRYSSPYDYWGQGTQVTVSS”, the “polyreactivity (PSR sort gate)” value is reported as “low polyreactivity”. In the case of “QVQLVESGGGLVQAGGSLRLSCAASGRIFGYYAMGWYRQAPGKERELVAAITSGGRTYYADSVKGRFTISRDNAKNTVYLHMNSLKPEDTAVYYCAAVRALRKVRDYYYWGQGTQVTVSS”, the “polyreactivity (PSR sort gate)” value is reported as “high polyreactivity”. With “QVQLVESGGGLVQAGGSLRLSCAASGRIFGYYAMGWYRQAPGKERELVAAITWGGGTTRYADSVKGRFTISRDNAKNTVYLQMNSLKPEDTAVYYCATALWVRYYGQGGYIRRYDYWGQGTQVTVSS” the “polyreactivity (PSR sort gate)” value was “high polyreactivity”. For “QVQLVESGGGLVQAGGSLRLSCAASGRIFGYYAMGWYRQAPGKERELVARITWSGGDTYYADSVKGRFTISRDNAKNTVYLQMNSLKPEDTAVYYCAADYLDSTYGYVYGWDDYWGQGTQVTVSS”, the “polyreactivity (PSR sort gate)” value was “low polyreactivity”. In the case of “QVQLVESGGGLVQAGGSLRLSCAASGRIFGYYAMGWYRQAPGKERELVDSISSNGTSTYYADSVKGRFTISRDNAKNTVYLQMNSLKPEDTAVYYCAASYWYDKAYDYWGHGTQVTVSS”, the “polyreactivity (PSR sort gate)” value is reported as “low polyreactivity”. In the case of “QVQLVESGGGLVQAGGSLRLSCAASGRIFGYYAMGWYRQATGKERELVADITESGTSTYYADSVKGRFTISRDNAKNTVYLQMNSLKPEDTAVYYCAAGYWWRYALYVYWGQGTQVTVSS”, the “polyreactivity (PSR sort gate)” value is reported as “low polyreactivity”. For “QVQLVESGGGLVQAGGSLRLSCAASGRIFGYYSMGWYRQAPGKEREFVSTINSVGSTNYADSVKGRFTISRDNAKNTVYLKMNSLKAEDTAVYYGATDSAYTFFSYRLWRHGYWGQGTQVTVSS”, the “polyreactivity (PSR sort gate)” value was “low polyreactivity”. With “QVQLVESGGGLVQAGGSLRLSCAASGRIFGYYTMGSYRQAPGKEREFVASISSTGGSTYYADSVKGRFTISRDNAKNTVYLQMNSLKPEDTAVYYCAARGRYVIDGYRMYYWGQGTQVTVSS” the “polyreactivity (PSR sort gate)” value was “high polyreactivity”. With “QVQLVESGGGLVQAGGSLRLSCAASGRIFGYYTMGWYRQAPGKERELVAAINGRGTSTYYADSVKGRFTISRDNAKNTVYLQMNSLKPEDTAVYYCAADGYTRADDYWGQGTQVTVSS” the “polyreactivity (PSR sort gate)” value was “high polyreactivity”. For “QVQLVESGGGLVQAGGSLRLSCAASGRIFGYYVMGWYRQAPGTERELVAAITGGGGSTYYADSVKGRFTISRDNAKNTVYLQMNSLKPEDNAVYYCAADLEDTTYEYDYWGQGTQVTVSS”, the “polyreactivity (PSR sort gate)” value was “high polyreactivity”. In the case of “QVQLVESGGGLVQAGGSLRLSCAASGRIFHFIAMGWYRQAPGKERELVATITKRGGRTYYADSVKGRFTISRDNAKNTVYLQMNSLKPEDTAVYYCNADQSRYSAVSGYDYWGQGTQVTVSS”, the “polyreactivity (PSR sort gate)” value is reported as “high polyreactivity”. For “QVQLVESGGGLVQAGGSLRLSCAASGRIFHFNAMGWYRQAPGTEKELVATITKRGGRTYYADSVKGRFTISRDNAKNTVYLQMNSLKPDDTAVYYCNADQTRYSAVSGYDYWGQGTQVTVSS”, the “polyreactivity (PSR sort gate)” value was “high polyreactivity”. In the case of “QVQLVESGGGLVQAGGSLRLSCAASGRIFHGYAMGWYRQAPGKERDLDAAISWRGDSTYYADSVKGRFTISRDNAKNTVYLQINSLKPEDTAVYYCAAASRSWRDDYWGQCTQVTVSS”, the “polyreactivity (PSR sort gate)” value is reported as “low polyreactivity”. For “QVQLVESGGGLVQAGGSLRLSCAASGRIFHNYAMGWYRQAPGKERELVAGISSRGGSTYYADSVKGRFTISRDNAKNTVYLQMNSLKPEDTAVYYCAKDKSPYGYATNQYRKYYYWGQGTQVTVSS”, the “polyreactivity (PSR sort gate)” value was “low polyreactivity”.
